Data on six molecules can be found in PMC3581401 (The Journal of Biological Chemistry, 2013).

Like-named read-outs stand apart in the source and are kept apart here.

Series [1] has as its target ICAM-1 domains 1 to 5 fused to human IgG1 Fc (human) (UniProt P05362). The series can be described thus: SPR. A general note: SPR reads the build-up and loss of mass on a sensor chip optically.
Series [2] deals with ICAM-1 domains 1 to 5, Fc tag removed (human) (UniProt P05362). The series can be described thus: AUC.
ICAM-1 domains 1 to 5, Fc tag removed (human), sequence (P05362 28-485): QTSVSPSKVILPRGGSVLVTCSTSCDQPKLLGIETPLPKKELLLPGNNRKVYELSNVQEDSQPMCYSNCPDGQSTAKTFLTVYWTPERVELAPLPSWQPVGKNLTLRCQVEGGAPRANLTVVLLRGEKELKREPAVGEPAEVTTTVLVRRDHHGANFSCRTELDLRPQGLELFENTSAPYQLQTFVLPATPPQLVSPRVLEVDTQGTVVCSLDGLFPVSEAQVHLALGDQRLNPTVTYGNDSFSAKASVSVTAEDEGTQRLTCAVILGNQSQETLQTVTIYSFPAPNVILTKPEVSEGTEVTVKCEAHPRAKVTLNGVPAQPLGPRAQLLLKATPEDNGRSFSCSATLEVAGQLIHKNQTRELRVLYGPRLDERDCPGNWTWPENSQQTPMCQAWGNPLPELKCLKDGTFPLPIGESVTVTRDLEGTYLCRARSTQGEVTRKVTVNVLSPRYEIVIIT
The target of a further series is ICAM-1 domains 1 and 2 (human, UniProt P05362 28-212). Briefly: SAXS.
ICAM-1 domains 1 and 2, sequence (P05362 28-212): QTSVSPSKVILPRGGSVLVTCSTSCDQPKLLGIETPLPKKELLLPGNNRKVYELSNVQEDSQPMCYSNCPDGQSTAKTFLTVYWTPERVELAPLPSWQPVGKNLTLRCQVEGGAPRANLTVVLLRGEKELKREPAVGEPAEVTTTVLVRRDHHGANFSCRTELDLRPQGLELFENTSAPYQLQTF
Series [3] concerns the target T1, ICAM-1 domains 1 to 5 fused to human IgG1 Fc (human, UniProt P05362 28-485). Briefly: SPR.
Series [4] addresses T1, ICAM-1 domains 1 to 5 fused to human …. The series can be described thus: SPR. The source holds these as a separate data set.
The series “AUC” concerns the molecule itself. Briefly: AUC.
Series [5] addresses ICAM-1 domains 1 to 5, Fc tag removed (human, UniProt P05362 28-485). Briefly: AUC.
Series [6] addresses T1, ICAM-1 domains 1 to 5 fused to human …. The series can be described thus: SPR. The source holds these as a separate data set.

One may read the Kd as the constant that tells how readily two partners part at equilibrium. What is called koff is the first-order rate constant of dissociation. As usually defined, the stoichiometry N is a count of units in the complex or per binding partner. What is called kon is the second-order rate constant of association.

T1 sequence (P05362 28-485): as the sequence (P05362 28-485) above
ICAM-1 domains 1 to 5 fused to human IgG1 Fc (human), sequence (P05362 28-485): as above
ICAM-1 domains 1 to 5, Fc tag removed, sequence (P05362 28-485): as above

In series [1], “IT4VAR31 DBLβ domain (domain or fragment)” gave a Kd of 144 nM and a koff of 0.00145 s⁻¹.
As to “IT4VAR41 DBLβ domain (domain or fragment)”, in series [1], the koff was found to be 0.00831 s⁻¹ and the stoichiometry N was found to be 1.09.
In series [1], “IT4VAR16 DBLβ domain (domain or fragment)” registered a Kd of 51.1 nM, a koff of 0.00208 s⁻¹ and a kon of 41000 M⁻¹ s⁻¹.
In the case of “IT4VAR27 DBLβ domain (domain or fragment)”, in series [1], the Kd is 6.5 nM, the koff is 0.00842 s⁻¹ and the kon came out at 130000 M⁻¹ s⁻¹.
With “IT4VAR13 ectodomain (PfEMP1 from the var13 gene of the P. falciparum IT4 isolate), A3R6S0 1-2691”, the stoichiometry N in series [2] and in series [1] was 1 throughout.

B1: IT4VAR13 DBLβ domain (domain or fragment, Plasmodium falciparum (IT4 isolate), UniProt A3R6S0 811-1201, looked up)
chain: ACTGKDGNNERFKIGTEWKIGEKVETTDTDAYIPPRRQHMCTSNLENLNVSWVTEDGKAIHSLLGDVQLAAKMDADEIIKRYKKHNTLTDPIQQKDQESICRAVRYSFADLGDIIRGRDLWEHGDQTKLQGHLQIIFGKIKEEIKKKHPGINGNDKYKGDEKNNPPYKQLREDWWEANRHQVWRAMQCELKNLKKSNGDCHYNSRGTPLDDYIPQRLRWMVEWAEWFCKMQSQEYDKLMKQCSQCMSKGGDCRKGDVNCTSCEQACEEYKKKIKKWEKQWNKIKDKYEELYLQAKIAFAGTSFGGGDRDYQQMVHFFKELQKVTGDTTLGDTTSPYSTAAGYIHQEGHVDECTEQTQFCKNRNGNTASGKEDDNYTFKDPPPKYANACKCD
B1: the “stoichiometry N” value with ICAM-1 domains 1 and 2 worked out at 1; in series [4], 1.16; in “AUC” it was 2; in series [5], 1. Further, the Kd came out at 2.6 nM in series [3] and 2.8 nM in series [6]. The same molecule had a koff in series [3] of 0.0009 s⁻¹. Also, the kon was found to be 350000 M⁻¹ s⁻¹ in series [3] and 35000 M⁻¹ s⁻¹ in series [4].
